Experimental data reported in article PMC9813773, “LACC1 bridges NOS2 and polyamine metabolism in inflammatory macrophages” (Nature, 2022).

B1: mLACC1 (Mus musculus) (protein)
chain: MAEAVLIDLSGLQLNAQKNCHETLLETLDGIHYHHAPKAKFLCIICCRNASKEKDGEYGLCELEAGNGFSRLAGKFETVSHPCLAASLYTIKQKIDEENLSCIKVIVPEHRKLLMKAYVGQLFTEVYEFEFEDLQGAWRDSLLKPSTGINVTTTQELEDIQHEIETYLRSLPALKGDLTIVTSPLIPDNFLHGFTTRTGGISSVPTLSSLNLFSSSKRRDPKVVVQENVRRLANAAGFNAEKFYRIKTDHASEVWVMGKKEPESYDGIVTNQRGVTITALGADCIPIVFADPVKKACGVAHSGWKGTLLGVAMATVNAMIAEYGCDVEDIIVVLGPSVGSCCFTLPKESAVSFHSLHPSCVRHFDSPRPYVDIRKATRILLERGGILPQNIQDQKEDLDLCTSCHPEKFFSHVRDGLNFGTQIGFISLRE
notes: codon-optimized synthetic cDNA in pMAL-C5x (MBP fusion), E. coli BL21(DE3), amylose resin; tag cleavage not described
B2: hLACC1 (Homo sapiens) (protein)
chain: MAEAVLIDLFGLKLNSQKNCHQTLLKTLNAVQYHHAAKAKFLCIMCCSNISYERDGEQDNCEIETSNGLSALLEEFEIVSCPSMAATLYTIKQKIDEKNLSSIKVIVPRHRKTLMKAFIDQLFTDVYNFEFEDLQVTFRGGLFKQSIEINVITAQELRGIQNEIETFLRSLPALRGKLTIITSSLIPDIFIHGFTTRTGGISYIPTLSSFNLFSSSKRRDPKVVVQENLRRLANAAGFNVEKFYRIKTHHSNDIWIMGRKEPDSYDGITTNQRGVTIAALGADCIPIVFADPVKKACGVAHAGWKGTLLGVAMATVNAMIAEYGCSLEDIVVVLGPSVGPCCFTLPRESAEAFHNLHPACVQLFDSPNPCIDIRKATRILLEQGGILPQNIQDQNQDLNLCTSCHPDKFFSHVRDGLNFGTQIGFISIKE
notes: as for B1
B3: hLACC1 (Homo sapiens; C284R) (protein)
chain: MAEAVLIDLFGLKLNSQKNCHQTLLKTLNAVQYHHAAKAKFLCIMCCSNISYERDGEQDNCEIETSNGLSALLEEFEIVSCPSMAATLYTIKQKIDEKNLSSIKVIVPRHRKTLMKAFIDQLFTDVYNFEFEDLQVTFRGGLFKQSIEINVITAQELRGIQNEIETFLRSLPALRGKLTIITSSLIPDIFIHGFTTRTGGISYIPTLSSFNLFSSSKRRDPKVVVQENLRRLANAAGFNVEKFYRIKTHHSNDIWIMGRKEPDSYDGITTNQRGVTIAALGADRIPIVFADPVKKACGVAHAGWKGTLLGVAMATVNAMIAEYGCSLEDIVVVLGPSVGPCCFTLPRESAEAFHNLHPACVQLFDSPNPCIDIRKATRILLEQGGILPQNIQDQNQDLNLCTSCHPDKFFSHVRDGLNFGTQIGFISIKE
notes: as for B1
B4: hLACC1 (Homo sapiens; K38E) (protein)
chain: MAEAVLIDLFGLKLNSQKNCHQTLLKTLNAVQYHHAAEAKFLCIMCCSNISYERDGEQDNCEIETSNGLSALLEEFEIVSCPSMAATLYTIKQKIDEKNLSSIKVIVPRHRKTLMKAFIDQLFTDVYNFEFEDLQVTFRGGLFKQSIEINVITAQELRGIQNEIETFLRSLPALRGKLTIITSSLIPDIFIHGFTTRTGGISYIPTLSSFNLFSSSKRRDPKVVVQENLRRLANAAGFNVEKFYRIKTHHSNDIWIMGRKEPDSYDGITTNQRGVTIAALGADCIPIVFADPVKKACGVAHAGWKGTLLGVAMATVNAMIAEYGCSLEDIVVVLGPSVGPCCFTLPRESAEAFHNLHPACVQLFDSPNPCIDIRKATRILLEQGGILPQNIQDQNQDLNLCTSCHPDKFFSHVRDGLNFGTQIGFISIKE
notes: as for B1
B5: hLACC1 (Homo sapiens; I254V) (protein)
chain: MAEAVLIDLFGLKLNSQKNCHQTLLKTLNAVQYHHAAKAKFLCIMCCSNISYERDGEQDNCEIETSNGLSALLEEFEIVSCPSMAATLYTIKQKIDEKNLSSIKVIVPRHRKTLMKAFIDQLFTDVYNFEFEDLQVTFRGGLFKQSIEINVITAQELRGIQNEIETFLRSLPALRGKLTIITSSLIPDIFIHGFTTRTGGISYIPTLSSFNLFSSSKRRDPKVVVQENLRRLANAAGFNVEKFYRIKTHHSNDVWIMGRKEPDSYDGITTNQRGVTIAALGADCIPIVFADPVKKACGVAHAGWKGTLLGVAMATVNAMIAEYGCSLEDIVVVLGPSVGPCCFTLPRESAEAFHNLHPACVQLFDSPNPCIDIRKATRILLEQGGILPQNIQDQNQDLNLCTSCHPDKFFSHVRDGLNFGTQIGFISIKE
notes: as for B1

Columns and labels:
[1] = substrate: NC(=O)NCCC[C@H](N)C(=O)O; test: L-Orn formation by LC-QQQ-MS, Michaelis-Menten; assay type: biochemical, Mus musculus; conditions: 5-500 μM L-Cit, PBS pH 7.4, 1 μM ZnSO4, 37°C
[2] = substrate: NC(=O)NCCC[C@H](N)C(=O)O; test: L-Orn formation by LC-QQQ-MS, Michaelis-Menten; assay type: biochemical, Homo sapiens; conditions: 5-500 μM L-Cit, PBS pH 7.4, 1 μM ZnSO4, 37°C

Protein | Km [1] | kcat [1] | Km [2] | kcat [2]
B1 | 117.2 µM | 0.0055 s⁻¹ |  | 
B2 |  |  | 163.7 µM | 0.00567 s⁻¹
B3 |  |  | 155.8 µM | 0.00275 s⁻¹
B4 |  |  | 81.58 µM | 0.0051 s⁻¹
B5 |  |  | 181.3 µM | 0.00433 s⁻¹
